The target in data set [1] is T1, PmTbr T-box (Patiria miniata) (UniProt A0A075Q982).
T1 sequence: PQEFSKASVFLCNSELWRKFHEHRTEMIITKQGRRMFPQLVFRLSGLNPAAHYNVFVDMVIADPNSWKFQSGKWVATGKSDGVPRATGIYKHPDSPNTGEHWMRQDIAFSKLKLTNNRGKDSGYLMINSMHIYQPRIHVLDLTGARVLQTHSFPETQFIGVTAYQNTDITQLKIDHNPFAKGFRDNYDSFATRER

The target of data set [2] is T2, SpTbr T-box (Strongylocentrotus purpuratus) (UniProt A0A7M7RD59).
T2 sequence: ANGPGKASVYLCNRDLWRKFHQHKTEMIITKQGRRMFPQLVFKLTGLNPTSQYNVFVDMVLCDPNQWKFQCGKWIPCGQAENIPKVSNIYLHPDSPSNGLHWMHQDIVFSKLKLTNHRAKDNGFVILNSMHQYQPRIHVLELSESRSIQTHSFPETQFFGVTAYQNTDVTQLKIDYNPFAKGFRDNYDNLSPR

The subject of data set [3] is PmTbr DNA-binding domain (T-box) (Patiria miniata). The data set is described as follows: SPR (steady state). As to conditions: SPR running buffer 50 mM Mops (pH not given; protein buffer 20 mM Mops pH 7.5), 150 mM NaCl, 1 mM DTT, 0.01% P20, 20 °C, 30 µl/min; streptavidin-coated CM5 ….
The test system of data set [4] is SpTbr DNA-binding domain (T-box) (Strongylocentrotus purpuratus). The data set is described as follows: SPR (steady state). To be noted: SPR running buffer 50 mM Mops (pH not given; protein buffer 20 mM Mops pH 7.5), 150 mM NaCl, 1 mM DTT, 0.01% P20, 20 °C, 30 µl/min; streptavidin-coated CM5 ….

Consider “AACACCTC (double strand) [8-mer AACACCTC]”, for which, in data set [1], the binding signal (PBM E-score (-0.5 to 0.5)) turned out to be 0.491.

In data set [2], “AAGGTGTC (double strand) [8-mer AAGGTGTC]” displayed a binding signal (PBM E-score (-0.5 to 0.5)) of 0.487.

Take “AAGTGTGA (double strand) [8-mer AAGTGTGA]”: the binding signal (PBM E-score (-0.5 to 0.5)) in data set [2] amounted to 0.488.

With “ACACCTCC (double strand) [8-mer ACACCTCC]”, the binding signal (PBM E-score (-0.5 to 0.5)) in data set [1] came out at 0.49.

Sequence “ACACCTCG (double strand) [8-mer ACACCTCG]” returned a binding signal (PBM E-score (-0.5 to 0.5)) in data set [1] of 0.49.

Consider “AGGTGCGA (double strand) [8-mer AGGTGCGA]”, for which the binding signal (PBM E-score (-0.5 to 0.5)) in data set [2] turned out to be 0.496; in data set [1] it was 0.497.

In data set [1], “AGGTGCTA (double strand) [8-mer AGGTGCTA]” came in with a binding signal (PBM E-score (-0.5 to 0.5)) of 0.491.

On to “AGGTGTCA (double strand) [8-mer AGGTGTCA]”, for which the binding signal (PBM E-score (-0.5 to 0.5)) is 0.494 in data set [2] and 0.495 in data set [1].

In data set [1], “AGGTGTCG (double strand) [8-mer AGGTGTCG]” gave a binding signal (PBM E-score (-0.5 to 0.5)) of 0.492.

For the sequence “AGGTGTGA (double strand) [8-mer AGGTGTGA]”, the binding signal (PBM E-score (-0.5 to 0.5)) in data set [2] stood at 0.498; in data set [1], 0.499.

For “AGGTGTTA (double strand) [8-mer AGGTGTTA]”, the results for the binding signal (PBM E-score (-0.5 to 0.5)) in data set [2] and in data set [1] were 0.494 and 0.496, respectively.

In data set [2], “AGTGTGAA (double strand) [8-mer AGTGTGAA]” returned a binding signal (PBM E-score (-0.5 to 0.5)) of 0.489.

The sequence “ATCACACC (double strand) [8-mer ATCACACC]” showed a binding signal (PBM E-score (-0.5 to 0.5)) in data set [2] of 0.488.

In the case of “CACACCTC (double strand) [8-mer CACACCTC]”, the binding signal (PBM E-score (-0.5 to 0.5)) in data set [2] and in data set [1] was 0.49 in each case.

Take “CTCACACC (double strand) [8-mer CTCACACC]”: the binding signal (PBM E-score (-0.5 to 0.5)) turned out to be 0.494 in data set [2] and 0.491 in data set [1].

A word on the Kd: it is the constant that tells how readily two partners part at equilibrium. A high value points to lower affinity. As for “CTTTAGGTGACAAACGGTTTTCCGTTTGTCACCTAAAG [PmTbr Secondary Site Hairpin]”, the Kd in data set [3] amounted to 0.446 µM; in data set [4], 0.989 µM.

For “CTTTAGGTGTCGAACGGTTTTCCGTTCGACACCTAAAG [MmEomes Secondary Hairpin]”, the Kd in data set [3] is 0.732 µM; in data set [4] it was 0.882 µM.

Turning to “CTTTAGGTGTGAAACGGTTTTCCGTTTCACACCTAAAG [Primary Tbr Site Hairpin]”, the figures for the Kd in data set [3] and in data set [4] were 0.107 µM and 0.137 µM, respectively.

On to “GACACCTC (double strand) [8-mer GACACCTC]”, for which the binding signal (PBM E-score (-0.5 to 0.5)) in data set [1] stood at 0.49.

For the sequence “GGGTGTGA (double strand) [8-mer GGGTGTGA]”, the results for the binding signal (PBM E-score (-0.5 to 0.5)) in data set [2] and in data set [1] were 0.493 and 0.492, respectively.

Regarding “GGTGCGAA (double strand) [8-mer GGTGCGAA]”, in data set [2], the binding signal (PBM E-score (-0.5 to 0.5)) came out at 0.487.

“GGTGTGAA (double strand) [8-mer GGTGTGAA]”: the binding signal (PBM E-score (-0.5 to 0.5)) is 0.497 in data set [2] and 0.496 in data set [1].

Regarding “GTGTGAAA (double strand) [8-mer GTGTGAAA]”, the binding signal (PBM E-score (-0.5 to 0.5)) in data set [2] and in data set [1] was 0.49 each time.

“GTGTGAAC (double strand) [8-mer GTGTGAAC]”: the binding signal (PBM E-score (-0.5 to 0.5)) in data set [2] stood at 0.493.

The values above are taken from article PMC4166925.
